Biological target: SARS-CoV-2 Spike (RBD)-Fc (SARS-CoV-2, UniProt P0DTC2)
Assay: ELISA

EDLFYQ [wild type Spike S1-Interacting Domain of ACE2 Receptor (SPIDAR) peptide]: binds.
